Assay results as given in article PMC10256812.

Target: T1, FLAG-tagged androgen receptor (AR), P10275
T1 chain: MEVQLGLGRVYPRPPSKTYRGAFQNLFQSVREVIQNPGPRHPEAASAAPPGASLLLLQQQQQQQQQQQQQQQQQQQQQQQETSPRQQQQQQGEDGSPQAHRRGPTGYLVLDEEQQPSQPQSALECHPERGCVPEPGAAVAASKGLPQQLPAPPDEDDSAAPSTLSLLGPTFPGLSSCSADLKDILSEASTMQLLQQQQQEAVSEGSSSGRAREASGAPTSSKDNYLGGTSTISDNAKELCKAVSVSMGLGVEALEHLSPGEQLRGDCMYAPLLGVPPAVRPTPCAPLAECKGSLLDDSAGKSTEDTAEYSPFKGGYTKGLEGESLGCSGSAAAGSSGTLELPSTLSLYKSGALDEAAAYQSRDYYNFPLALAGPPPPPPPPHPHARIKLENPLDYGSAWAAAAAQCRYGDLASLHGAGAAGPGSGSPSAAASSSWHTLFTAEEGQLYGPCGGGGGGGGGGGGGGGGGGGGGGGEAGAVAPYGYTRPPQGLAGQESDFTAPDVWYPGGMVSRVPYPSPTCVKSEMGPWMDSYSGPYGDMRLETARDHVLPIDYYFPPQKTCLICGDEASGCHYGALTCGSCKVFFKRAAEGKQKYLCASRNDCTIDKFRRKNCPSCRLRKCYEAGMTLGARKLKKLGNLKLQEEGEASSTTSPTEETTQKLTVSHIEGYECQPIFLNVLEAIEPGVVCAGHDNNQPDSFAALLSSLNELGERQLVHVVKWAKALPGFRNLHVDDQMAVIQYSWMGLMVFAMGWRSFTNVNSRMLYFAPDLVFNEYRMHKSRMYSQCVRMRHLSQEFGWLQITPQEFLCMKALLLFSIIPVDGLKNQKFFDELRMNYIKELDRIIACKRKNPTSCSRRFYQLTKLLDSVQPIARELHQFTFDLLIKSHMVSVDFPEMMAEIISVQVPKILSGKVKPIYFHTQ
Assay: co-immunoprecipitation (Ni-NTA pull-down of His-SREBF1, immunoblot with FLAG antibody), band quantification
Conditions: chain shown with the change, HEK293T cells

response (+ DHT, parent: 0.9): 3.7 | response (without DHT, parent: 0.1): 0.3
B1: His-tagged SREBF1 (wild type), expressed in HEK293T cells, P36956 Y673A; Y951A (protein)
chain: MDEPPFSEAALEQALGEPCDLDAALLTDIEDMLQLINNQDSDFPGLFDPPYAGSGAGGTDPASPDTSSPGSLSPPPATLSSSLEAFLSGPQAAPSPLSPPQPAPTPLKMYPSMPAFSPGPGIKEESVPLSILQTPTPQPLPGALLPQSFPAPAPPQFSSTPVLGYPSPPGGFSTGSPPGNTQQPLPGLPLASPPGVPPVSLHTQVQSVVPQQLLTVTAAPTAAPVTTTVTSQIQQVPVLLQPHFIKADSLLLTAMKTDGATVKAAGLSPLVSGTTVQTGPLPTLVSGGTILATVPLVVDAEKLPINRLAAGSKAPASAQSRGEKRTAHNAIEKRYRSSINDKIIELKDLVVGTEAKLNKSAVLRKAIDYIRFLQHSNQKLKQENLSLRTAVHKSKSLKDLVSACGSGGNTDVLMEGVKTEVEDTLTPPPSDAGSPFQSSPLSLGSRGSGSGGSGSDSEPDSPVFEDSKAKPEQRPSLHSRGMLDRSRLALCTLVFLCLSCNPLASLLGARGLPSPSDTTSVYHSPGRNVLGTESRDGPGWAQWLLPPVVWLLNGLLVLVSLVLLFVYGEPVTRPHSGPAVYFWRHRKQADLDLARGDFAQAAQQLWLALRALGRPLPTSHLDLACSLLWNLIRHLLQRLWVGRWLAGRAGGLQQDCALRVDASASARDAALVAHKLHQLHTMGKHTGGHLTATNLALSALNLAECAGDAVSVATLAEIYVAAALRVKTSLPRALHFLTRFFLSSARQACLAQSGSVPPAMQWLCHPVGHRFFVDGDWSVLSTPWESLYSLAGNPVDPLAQVTQLFREHLLERALNCVTQPNPSPGSADGDKEFSDALGYLQLLNSCSDAAGAPAYSFSISSSMATTTGVDPVAKWWASLTAVVIHWLRRDEEAAERLCPLVEHLPRVLQESERPLPRAALHSFKAARALLGCAKAESGPASLTICEKASGALQDSLATTPASSSIDKAVQLFLCDLLLVVRTSLWRQQQPPAPAPAAQGTSSRPQASALELRGFQRDLSSLRRLAQSFRPAMRRVFLHEATARLMAGASPTRTHQLLDRSLRRRAGPGGKGGAVAELEPRPTRREHAEALLLASCYLPPGFLSAPGQRVGMLAEAARTLEKLGDRRLLHDCQQMLMRLGGGTTVTSS
